This data set is described as follows: soluble fraction after stress (log2 fold change); higher = more stays soluble; pooled small domains, quantitative proteomics. The settings on record: stress: 75 degC.
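Note: 20 min heating vs room temperature control held 20 min.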

Turning to “HMSSNLSLHKEGNKIVILGLEGKSVIEVYDLMGRLLSSQTNYNPKQEITLLQPVIIRVTDTQQTKSFKV”, the “soluble fraction (log2)” value was -1.5. In the case of “HMSSNLTVFTRNNAIIVNSDVVRKLNVFAVDGRLVRSVDLSVGENVINNISRGMYLIDKQKVVV”, the “soluble fraction (log2)” value was -2.77. Under “HMSSPDMSLLYSELDVKDSGQIVTILEQRNIPYEVRNNGSQIYIPSNNVQRIRLSLAQEGLPSG” stands 0.111. As for “HMSSPTAKATGSSVNIRKSASTGAAVLKRVEKGTVLEAVSISDGWVKVKYSGVTGYVSADYVKVSGL”, the “soluble fraction (log2)” value is -2.19. As for “HMSSQGQNTKTGTVTASALYVRSGAGTNYSQIGYLLKNTKVEIVGQTGSWYKIKFGSGTGYVSSKYIK”, the figure is -2.69.

Take “HMSSQLETTFATLIGKRVSIRLHDPEGGFRDILGHLESPYSLRNRHGNLIEFAHDQIFLWREVI”: the “soluble fraction (log2)” value is -1.82. With “HMSSRNLIIFYDSPQAENALLATAERYGAILLHHYRNLHGIAVAIPADKDMAQAVTYFSRQPGVRQV”, the “soluble fraction (log2)” value is -2.56. As for “HMSSSKVAISQFEELVDQGQVREVVIEGSTATGTTAAGRRFAAEIPPGGMELFLSKLDDAGTTYEYSPP”, the figure is 0.822; as for “HMSSSYTEMQLDKLKKLLEKETLLSSEKSELKSLIHDFDKIPEVVSPLIVGEYLRLKNKYIAVINSLE”, -1.25. For the sequence “HMSSSYTEMQLERFKELLNKETLLSSEKNELKNLISDFDKISEIVSPLVVGAYLQLKNEHIETINSLG”, the “soluble fraction (log2)” value is -0.507. As for “HMSSTAIQAMIRRLIDGEDPRKPLSDARLAETLKASGVPVARRTVAKYRESMSIPSSQDRLRI”, the figure is -0.577; as for “HMSSTSTKTQNIVHIVKSGETLSAIASKYGVSVDNIKKWNNLSSDKLSIGQKLKINPTTQTSS”, 0.29. For “HMSSVEEILQTLGGRIRTQRLAQGISQQVLADRAGLSLGAVRQLEGSGQSGLDTLVRVLFVLGIVDEL”, the “soluble fraction (log2)” value was -2.27.

As to “HMSSVHTMEVKSTTQIKVLDENKNLSSYYSMKNPVSFNYRLFFLNQDELKKLQEDLKTNNDIQSIDIKYA”, the “soluble fraction (log2)” value was -0.484. With “HMSTALTPLTTREREVLALMAEGLTNSGIAARLVLTDRTVETHVSRILHKLGLGETTTNEHRRVLAVLRYL”, the “soluble fraction (log2)” value was -1.72. Under “HMSTASPEELRQTPERRRLIEYLREHGGHGRTSEIAAALGIDDSTASRLLRRLADNGLIVRTQYGEYTLLQ” stands -0.184; under “HMSTEAVVMSSSVSVKSSPDKASTDLFVLHEGTKVRTVSELGDWREIVIADGKKGWVEARTIET”, 0.756; under “HMSTEPLALVGKTGIAATVLRPSGRIEVDDKYYDAVSLGAFIEKGEMVNIVKYENLQLYVAKL”, -2.18. As for “HMSTFAQNLRALMEKRGVSQNELARSAGLTQSAINKILTGKTKQPGIDTTEAIARVLNVSVAQLIYT”, the figure is -1.4; as for “HMSTFTPYLVKVTTSVLNIRKGAGTNYGTNGSIRDMGTYTIVAEADGQGASKWGKLKSGAGWISLDYTKK”, -2.33.

“HMSTILERLIMLQEQSGMNQKQLQKELGLSNSAFSDWKKGKGRPSVEALVRFSEFFGVSMDWLAFG”: the “soluble fraction (log2)” value was -2.27. With “HMSTKRQKELLEYVDRFITEHGYGPSYREIMNAIGYKSVSTVAIHIDGLIAKGYLRKRDNSARSLEVV”, the “soluble fraction (log2)” value was -1.17. Take “HMSTKYSSNIISLVKGLMEEDQYKDLMGPPLKKEIIKKVESITDTFPYKFDKDDKEFIVKKVLISLRK”: the “soluble fraction (log2)” value is -1.77. Regarding “HMSTLKSALDEIPGIGAARKRALLNHFGSTRVISSVGVKDLEQVEGVSKKIALLIYGYFHDK”, the “soluble fraction (log2)” value is -2.57. As for “HMSTLSIHIPDKFAGQRLDQALAELYSQFSRSRLQQWLNDGELLVDGKSVKANKKVLGGEFIQILK”, the “soluble fraction (log2)” value was -1.24. As for “HMSTPENLGGRNTAKARISWLENGVKQELESDFPAAEVVKLSSRFGGEVPELTVIRPSLEDIYLKMIG”, the figure is -0.00898. As for “HMSTPLVATLRKRIIDGHYPPGERLAEIPVAEAFGVSRTPVRLAFRTLEQEGLLEKAGKRGYAVRA”, the figure is -0.164. On to “HMSTQVPDVKERSQEEARSILESAGFKVTPAVKTEDSADIAKDMVTKTDPAAGQSVPKGTTITIYVSS”, for which the “soluble fraction (log2)” value was determined as 0.126. Turning to “HMSTRLIGEIGVVTKDLGAGLKENGSIQIGREEWPAETKDMEHIPMGTRVKVIHIEGTRLVVEA”, the “soluble fraction (log2)” value is -0.561.

“HMSTSRAEIIAFLKSNPSSEYKHELETKLDEMDWAEAVKGNSEESFLAYKQRQPNGTHNGEADEKLKVLLV”: the “soluble fraction (log2)” value was -0.0423. Under “HMSTVISPLPGNIIKVLVPEGKSVKRGDTILTIESMKMENSIKAAYDGVVKKIYVQQAQIVMQGDPLFDL” stands -2.86; under “HMSVALSENIKTRRKALKMSQEYVAEQLDISRQAVAKWEAGKSEPTTENLVKLAALFEMSVSELVE”, -0.969; under “HMSVDDVALRLEFGPSDAEALAFVHRHGAILSETTDRDTGVVSVHVRLSEADAGRFNQRYGV”, -0.0968.

With “HMSVDDYLKFSGSGTYWNTQDRGKTYLVNGQQRPLRDKEYLPDVMHRHVIDFITKHRDRPFYIYYSM”, the “soluble fraction (log2)” value came to 0.173. As for “HMSVDVEGNQRIPTEQVLSELRDVGVSFGKRVSGLNADTIRNQMIINNDEIAWLGVNVRGSRVYVEITERI”, the figure is 0.125; as for “HMSVERIEPPLPLIDTLLALRDALERPLSREENAFLSRRFAGGATRAQIDALAAQFRGAAAAESKV”, 0.0516; as for “HMSVETSDLLPLIEQVLSLNPDKVKEYQNGKKGLLGFFMGQIKQTAGVAIDVGTLKPLLEDALHKDL”, -0.861. As for “HMSVEYRKTLSDGNEYQIVKEKNGYVIKKSLNEGLDYLEPMKNRKYYSSYSQAFKRLNLIAKEVNINEGYD”, the “soluble fraction (log2)” value was -0.511. As for “HMSVFGMEIGKTTEAEAGRMYRLNKEQLNPYSGGYQYSVNPKAIDFSGLEQVTLIFDEKKVLVYVQAV”, the figure is 0.144; as for “HMSVIETLLSDREREVLTHLVNGYDAKRIAEITGISTLTVRKHIANIYTKLHVNSKAQVISMAHKNKWF”, -2.7; as for “HMSVIKERLTEFLTYKGIGQIKFAEAAGLSRGFVNVLGDGISSKSLNKISQAFPELNTLWLTTGEGEML”, -1.72. Under “HMSVKTIRKTEFAKRLYSLMLEKNWNQSDLARASGMGRDSVSQYIRANNTPSPQNLKKLAEALGVEPVELY” stands -2.05; under “HMSVKYLQIYHAIREKILSNEYAINQQLPDEITLTKEFNSSRMTVKKALDLLVSEGLIFRKRGQGTFVLSR”, -3.67.

Consider “HMSVLDEVRKLSFHQRNAVFLFYFEGYSMKEIAQIFHVKEGTVSSWLTRARKQLRKQMEEEVLYDESLP”, for which the “soluble fraction (log2)” value was -0.473. Under “HMSVLLDDLSPREREILQLVVEGHSSTKIAGMLGLASATVDTYRSRLMAKLHIDNLPDLVRFAIRHGLIS” stands -2.46. In the case of “HMSVLLKEEGSLQLARHGAAYFIIYSAQEHPNQRRHLKISEEESNRIMEGTPIEEIFLAYSG”, the “soluble fraction (log2)” value was -1.67.

With “HMSVLQGLIESFKAGDRNLYEVAERLNVTEPFLAEALKDYRARFPKGVQVDNFWISFRPYLTIAEV”, the “soluble fraction (log2)” value was -1.17. As for “HMSVNEKVRLFRELNQWSQEEMAERMNMSVAGYAKIERGETNISLHKLKQIASVLQIDLLDLVS”, the figure is -2.1; as for “HMSVPEAAERAIDVAQMRRALGELSPEQQRVLELAYFGGLTRQEIARATGTPLGTVHTRARLGLQNLRARL”, -0.306; as for “HMSVPRVWTDIQGRRVKGDFEGLRGDLVVLRVGGKSYAFPLVRLIASDQAYARSLVAGNPSK”, -1.5. As for “HMSVPSLVGKTDSEAQSAIKSAGLKVGTVTYQYSDETEKGYVVSQSPYSGNKVNAGSTVNIVVSKGK”, the “soluble fraction (log2)” value was found to be 0.0467. Consider “HMSVPSVAAVREQTGLSQVKFASLLGVSVRTLQEWEQGRRAPSGAARTLLMVAAKNPQALLEV”, for which the “soluble fraction (log2)” value was -1.31. As for “HMSVSVEEDADGRVWVYYQDQKMDITDLFDENGVYGFNLEKGDRTVYVEVTKNADGTYSFTQTD”, the figure is 0.427. As for “HMSVTIENQINTYFQTRDKISRDELVALIKKDFANWTDNTINIYVSSLQKRGIIHSLSRGMYALGN”, the “soluble fraction (log2)” value is -4.25. Turning to “HMSVTYRLLITSSPGQAEVFLDGKRVGITPFSARLAAGWYQVRVSKEGYNLWEQHVQLREDQRLTATLT”, the “soluble fraction (log2)” value was -3.17.

Take “HMSWAAQVVDKMTNDQLIKSLNEIVNTGKQLGLDITVEQNGDKNFIMTVKDSKGNVQLVTPIG”: the “soluble fraction (log2)” value was found to be 0.108. Under “HMSWEQELIEKANEIIDLYPEKRSALGPLLYLAQERDGYISDESIVEISNLVGITEVQVKSVASFYSMYK” stands -3.62; under “HMSWNIHEAVEYYKGQDAPQNQFALVELLKEVQEHNGGVLTDIAVEEIAALLNTKVTFLNAVIKRYPSLK”, -0.661; under “HMSYEDLIQAVSGHFGIEIRALLSEDRKKENMIPRQVAMYLLKNKLHYTYERIGNIFSGRNHTAVMYSV”, -0.263.

As to “HMSYGKVQFVIDAKDAVLSIDGKETDYEKPVKLTYGSHTITVYSSDYDTWKRNLYVNSEKSTVVINLA”, the “soluble fraction (log2)” value was -3.13.

Turning to “HMSYKDIKEASDTGTYRDEENNIDVKWQKLFNGHNEYFDIEAYRDGERVEINNQQADRYIYLIKQEMD”, the “soluble fraction (log2)” value is 0.678. Under “HMSYPEIFQSLTEREQKIADMIAEHLSNKEIAEKMFLSEGTIKQYINQIYSKLQITGDIRNKRKQLIELFH” stands -1.62; under “HMSYTPGQWVEASMPNATFFRIVPSGNATADKMLAVATPMKVISTSGTYVKVELDSGDVGFVPEIMV”, -0.199; under “HMTAEASELRERIRAAMATLPPAQQRVIELAYFEGLTQREIAALLNEPLGTIKTRMRLGMRKLKDVL”, -2.35. In the case of “HMTAIKAGDLVKITGTKYYGGQTIPGWVKNQNWYVQEVSGDRAVINKNESGTNAIMSPIRVSDLTPVS”, the “soluble fraction (log2)” value worked out at 0.036. As for “HMTALPPNVSIDSDERRLLEAIGFDPVDMDVLARDGQFSSVDLFRLLVSLELKGLVENQHGAYQRL”, the “soluble fraction (log2)” value is -1.85. In the case of “HMTALSAREHEVLQLITRGYTADEIAAMLQISRHTALTYVRRIYSKLKVNSKAEAIFEVRQR”, the “soluble fraction (log2)” value was -0.926.

“HMTANPHKPEPLQIDTSDITPGVTVIHKAFGNGTVVSVDNNRILIDFDGIEKKFPFPGAFLYGFLQK”: the “soluble fraction (log2)” value was -0.547. Regarding “HMTAPDDFIRAEVTASGKNGMAVAELSKRVRTRFKSFKVRELGYPHLAGYLADVEGVRVYKQGRENWVAK”, the “soluble fraction (log2)” value is -0.899. Regarding “HMTAQASDIEKVLQVIETLGFRGHTLPGENRTAIGVTGNRGSIDPAHFENLPGVADAIRVTKPY”, the “soluble fraction (log2)” value is -0.0976.

The values above are taken from the domain aggregation screens of Martell et al. (2025).
